# Measurements as given in a protein production outcome set (Wang et al. 2014).
# Assay: label from the status in PepcDB records
# 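Further: failed if final PepcDB status was selected cloned or expressed and not failed if soluble or beyond.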
row,Sequence,protein production
1,MPTLKSYFLKDTSLRTEILAGATTFLTMVYIVFVNPKVLHDAGMDQGAVFTATCLITAFACALTGFIANTPIGVAPSVALNIYFSYSVVQGMGVDWQHALAMVFISGLLFLFLTLTKLRRLLVEAIPHNLQIAIVIGISLLIALIALENNQIIIGDQHNLMRLGSIIRPETGLFFLGFILILTLDYHKIPGAIIIGILSISVLSLILGLTSWQGLIAMPPSLEPTFLQLDFSGLSSIVALKTIFTFFLITVFDATGSLIGLLSPTIFKHEKNYYKRLTRSLTADAAASSLAGLMGSASTSPYIESATGIEAGGRTGLTALVIATGFILMLFLFPLAKMIPSFAVGPALLYVACCMIKHITNMKLQDITETAPCMVIIMMVPFTASIADGIGLGIILYTLLKLFTRQKPNPLIIVLSLVFTVFFLIN,failed
2,MPTPAPSADSTAERRHREKDTPLHRAARRGDADAVRELLARGAEIDALDDKGRTPYRLALDAGHPEIARWLAAAGADRHRSAAGTPGESEKRPRHPPSRLSSKDGIDGYPGWPALTVAAWRGHASTVETLLARGADVAARAPDGHTPLTRAAWNGHAGIVKILLAHGAEADVATPDGRTALMWAAREGHGEVVAVLAAAGARLDATDGDGNTALSWAAQRGKATTVRVLCSLGAATGVARKDGRTPIMLAALGGHPESVEVLLAASADPNATDADGHTALWHAVDGGHSGIVEILLAHGASFDRDRAPGHDALARAAWKGDEKTAGLLLAYGARVDAPSGDGNTALAVAAGRGHAGVIRLLLRKGANPDRRNRRNMTALMLAAQAGHSETVAALLEAGADPTLRNRHRHTAVSLARAGGHEDCVKILEKHRVGRRTLLGFLW,failed
3,MPTPGTGSVPELQLVPFQLGHFPILQRWFATEKELVQWAGPALRHPLSLEQMHEDLAESRRRPPLRLLWSACRDDQVIGHCQLLFDRRNGVVRLARIVLAPSARGQGLGLPMLEALLAEAFADADIERVELNVYDWNAAARHLYRRAGFREEGLRRSATRVGRERWNVVLMGLLRQEWAAGGAGND,not failed
4,MPTPRPEPAAPPGNNQAGPPAGGPIISPTDLIAIQPPRAVAGDFVPDEVLVTVDGDAGAVQQIAASFGLEVRSQRQSRLLGTTLVRFGIPDGRPVGVVLAQLAADGRTQRREPNHIYSLQQAAGIVNYAFDRIALDAKQASGENIRVAVIDTGIDDTNPALAGVIAAQFDAMPGVPVEKRDHGTSIDGLIAGVGALEGMAPGARIYHARAFEGGKSTMDVILSALDWAAEQNVSIINMSFVGPKNDLLGAACRNARALGMVLVAAAGNNGPKAPYGYPAAFDGVIAVTATDAKDALMPQANRGAYVFISAPGVEMVAPSGAGSDVVTGTSFAAAIVSGAIANLLHASPGRTADDIEKALAATAKDLGPKGRDNDFGYGLLDIKAAEAAKE,failed
5,MPVSIFMTVVNKSGVLARVTAEIAKADSNIDDITLENDKDYTTMRFILQTRDRQHLAQIFRRLKHIDEIVKMGRIKNLLEHHHHHH,not failed
6,MPVVDIDPDELRRLTGHRSKDDDELRQDLFGLGIEYEGETEDGDFKLEFEADRLDRLSVEGIARSLRYHAGDDRGVDIPDTNAPEWAIDVTDVPADRPYVTGAVIRGVDLDADALDSLIQLQEKLHATMGRKRAKGAIGIHDLAMLKGDTVDGDGTAARSLTYTGIDPDGDTFVPLDDDAERTPADVLTEHPTGETYADLLADHDTYPAIYDDIGLFSFPPVINGRRTEVTTDSRELFVELTGTDQWTIDRMCAIICYALDARGATIEDVTVDYPDRELHRPDFAVRTKHVSHDRIETLLGVEFTTEAVVDLAERAGLDATPTDDGYDVEIPPYRVDVRHPVDVVDDLGRAYDFNDLTPRYPDVNTIGGRTESSRLERSVRQALVGLGFEDLLNFNMTSEAENFDRMRLTPDHDAVGAAQPATIAEPYSQDFTILRTWALPSLAMVLETNTHHAYPQDLAEVGFAAHADGDTQTGVAERRTVAAVLARNDASYEDAKARLQALCDEFAVALETPPTTHPSFIDGRAATIEIDGQPAGVIGELHPGVIVEHDVEVPVAGFEFELDALR,failed
7,MPWQQQPIRYSADLEKPSPREQADIEKIMAKLLKNNERAYDKYKHGLRDAHAKSHAILRGELIVNEGLPPELAQGLFAEPRTYPVIARLSSTSGVRRSDKTRGVRGLGLKVLGVQGEKILPDDSSTNQDFVMVTHEDFLFADAHAYAGLGMITASLLARLSDQALWLGSGLLDLVSKAGIKLPDNLMVFVAPNRPILGLEFFSSAPFRHGDHVAKYRFAPASENVKALSGQLLPRNPAPEQHRDMIAEFFADQTAEFDFSAQLCTDPVAMPIEDAGKNWDKSISPYVSVAKIVFGPQNPYSALRRAYGDDVLAFNSWRGLAEHRPLGSINRLKKTVYESSADYRHRVNRIDRHEPLEHHHHHH,failed
8,MPYDTSNNTLIVSTRNHQDDDETAIVDDLQRLVNYQISDGGNINHQYFQIAQQFHHTQQQNANANALQLVAAATTATTLMPQTQAALAMNMIPAGTIPNNALWDMWNPIVPDGNRDHYTNIPFK,failed
9,MPYFYVFLLLLTSLLWGGNFVVGKSLVDHASPMTLTNLRWMIAIVCLLPMVWFKEKKILPPRTAILPLILMGISGVALFNIFQFLALEKTSATNVGLISTLNAISIALFSVLFLKEKVNTLQILSMILSFFGVILVLLKGDFSLLFSLHFNSGDLWMIAAVCIWGIYSVCSKWATKTTTPLMATLYSGIFGVILLLPFNIGSFTVSNINTSFITSLLYTGLISTVLCMVFWNIGVQKLGATTSGIFLNFNPIFTAILAFIFLGEELTWIQILGTIVVVTGCYLFSHFKTVAVQPVRPLMRKHS,failed
10,MPYKNILTLISVNNDNFENYFRKIFLDVRSSGSKKTTINVFTEIQYQELVTLIREALLENIDIGYELFLWKKNEVDIFLKNLEKSEVDGLLVYCDDENKVFMSKIVDNLPTAIKRNLIKDFCRKLS,not failed
11,MPYLLLTLAALFWGGNYVVGHVLVQGVDPILMTEARWALTALLLGLLYRRQIAGSRRLLRANAPAVVVLTLCGQVSFPLTLYIGLQTTSALNAAIYMSATPSMVLLINRLFFRDPVSGRNWLGVAFSTLGVMILLFQGNPLHAASLHTFAIGDLWAMGSALSWALYCSLLRLKDRRIPANGFVAVSSLLGALILVPIVIFWLMRHPAQDWAAWREPFFLSGLAYLVIFPSWLAYLFWNKGIATIGATRGEIYTHIIPLSGGVLSILFLHTQPHAWHLFSALFIMVGIGICSLEKRQAASIRLRD,failed
12,MQALTTYKCIEKGIVVWLTGLPGSGKTTIATRLADLLQKEGYRVEVLDGDWARTTVSEGAGFTREERLRHLKRIAWIARLLARNGVIVICSFVSPYKQARNMVRRIVEEEGIPFLEIYVKASLEEVIRRDPKGLYKKALKGELENFTGITDPYEPPENPQLVLDTESNTIEHNVSYLYSLVKAVIE,not failed
13,MQAVALENDVIRRFASGQMFPMAKLVLETAFQPIVEATTGTIFGYESLMRGHDRLGFSSPLALLDQAAADGELKAFEQMLASRALAKFSTLPDFSSATLFLNLDVRLIPHGDVILDKLVGHLARAGIPASSICFELSERFDNTSVPEFTSLIARMRKEGFKLAIDDFGAGHGEMKLLCDFPLDYLKIDRHFISGIDHLPRKQHLVRNIVNIAHVLGVRVIAEGIETEAEFLSCREFGVDLVQGWLIAKPTVFTSELPESFPHLNRVGVARRNSQTLDEILIRREIERLPTVFEHDSVDSVFELFRRNPQQAFFPVLNANGEPRGVINEYHLKEYIYRPFGRDLLKNKIYERTISHFVDPAPIVGLDADADQLMNMFASMGGMGGSACIILTENMRYAGIVSAASLIKVINEKQLKMAQDQNPLTALPGNRAIGGFIADSCSDGDETRFFCYCDFDNFKPFNDKYGFNAGDHAITLFSALMRRYFFAGDCFLGHIGGDDFFIGVRDWSVEELMEILERLLSDFHDDVAGLYSDEDRAAGCMKGQDRNGNERDFALLRCSIGVLTLPKGSIIANPERIGSEIASVKAAAKENEGGLVVRVFGEANLEHHHHHH,failed
14,MQDAFEVALPLFLIMDPVGNAAASLAILREHTPSRQRAIIRRELVFALAIVLLFHFLGDALLGLLDIEQSTLRLSGGIILFIIAMKMVFPPAQENDPEAVTRDPFIVPIAVPLIAGPSLLAAVMVYARQAQAGMMGQASVLGGVLMAWGATALIMAFTPDLARILGPRAMRAMERLMGLILILMAVQMLENGIRIFVQSL,failed
15,MQDFKKLPTVLTAEELIDKIFRRAARVEGRNPKEKALNKLATISNVSRDYFGKIIGAHPSYENLPDFYREMVDVVVGIRQLKKSLVALKWADGMIQKVVSRAVREVKGGKNPSAVVKSAYGRVASIIEQIDDELRFLNDAKNRMREIPILQDLPTIVVAGYPNVGKSSLVARISTVKPEVASYPFTTKKINLGFAEFAGKRVQIIDTPGLLDRPLSKRNRIERRAVLALKHLADIILFVIDPTETCGYSLEKQLSLLEEIKGYFAKPTVEVYSKADMHDRRDRQAYSAVTGEGIDELIKEIEKMVKIHSQTSTVIAPSGQTSTQEQHSLEHHHHHH,failed
16,MQDIHFRRHYVRHLPKEVSQNDIIKALASPLINDGMVVSDFADHVITREQNFPTGLPVEPVGVAIPHTDHKYVRQNAISVGILAEPVNFEDMGGEPDPVPVRVVFMLALGESNKQLNVLGWIMDVIQDEDFMQQLLVMNDDEIYQSIYTRISERGEV,not failed
17,MQDNNGPCRNFYQLVFEEGKFMPRAFLSHSSADKKSYVEMVAKKLGYNTCVYDEFSFEEGMKSAEEIMKGLSRSDLFVLFLSDSALESNWVKNELNTAQELLNTGDMKRILPIIIDKNITYKDNRIPQWLRDEYNLKYVSRPTVAARRITQKLREISWEQHPRLKEKDQIFVGRNNLTKTFEERIDAFDLQTPTCIFASGIRKIGRRTLLKNCLTKSNVVDDSYQPPIITLNSHEGLEDFIIRIYDLGFSGEFNLSDFMTTEIDHKIGIATELIRDIQVAKEILFILDNGCIITPDREINQWFLQILSHLPNQDRVTFGIASSFRLDKKYIRTRNNIFYIEVPELDKVEREGLLKRYSKFEKLELQPDELKFFGDLLNGYPEQVYYAVDLIKDLGIFQAKKDSYLIQEFNTERVNILMNKYDNNQKSKDFLYFLSEFEFVDYDFIFEIVGDEEFYINLLNELLASAICEHLGANKEYIRINDIIRDFVKRNNLSLPKEYKDKLEDHLNNFLSNYQKEEKSAADLLYSMKEALIQGKSIDEKYLIPSQFLKTMTELYDRHKRYGEIVKLADRVLQNEEYMDHRITEEIRYYLCLALARQKDSRFLQEVQKIDGANHDFLFGFFFRITGNYRKAIERLETAIEKRPHFSFAERELVNVYLLIEDFERALTLAKQNYERDKNNPYHIQAYFRCLIAEDKINGNEEKMEELLDNLNKLKTEKAKQMYMRAKAQYLAFHKDDEIGALELADLATKTYSHDIYCWFTKFDICEKYDKIDEMGNILKVLDKMIDKNSSFYSILINLKALYLAKSDQKPEALKLVFSLNNYPENALDKIIKRIESTKIPRMNKRSIKI,failed
18,MQDSFFSFLSSPINLLFLFVAFFLLFVTPWLWNIVNSAHNIHKLLDPLGIKKKENSLPVTGLLFLPLLLIIIFIEWFWPLANITLFPILASPYIKFNIIAVISVVILLILIQCDKKKSMELWVLAYAAVLYLLYLIIIMATVVVGMNAFPASHYIFAPESSMTINRTIIYGLLIAHLIFIWLTISLKFTWRLLLMILYTLALSFAYFSLIVS,failed
19,MQEQVSNVRARIYKPAKSTMQSGHSKLKAWKLEFEPSCTQYTEPLMNWTGSHDTKQQVCLSFTTRELAIAYAVAHKIDYTVLQDNPRTIVPKSYADNFTKPRDM,not failed
